Measurements from patent US20230365674 (published 2023).
Residue numbers refer to the chain shown, from its start. Like-named read-outs stand apart in the source and are kept apart here. One block for each binder: values may come before it.

Experiments:
[1] = biological target: T1, human NPR1 W74R + ANP (human); assay: ELISA
T1 chain 1: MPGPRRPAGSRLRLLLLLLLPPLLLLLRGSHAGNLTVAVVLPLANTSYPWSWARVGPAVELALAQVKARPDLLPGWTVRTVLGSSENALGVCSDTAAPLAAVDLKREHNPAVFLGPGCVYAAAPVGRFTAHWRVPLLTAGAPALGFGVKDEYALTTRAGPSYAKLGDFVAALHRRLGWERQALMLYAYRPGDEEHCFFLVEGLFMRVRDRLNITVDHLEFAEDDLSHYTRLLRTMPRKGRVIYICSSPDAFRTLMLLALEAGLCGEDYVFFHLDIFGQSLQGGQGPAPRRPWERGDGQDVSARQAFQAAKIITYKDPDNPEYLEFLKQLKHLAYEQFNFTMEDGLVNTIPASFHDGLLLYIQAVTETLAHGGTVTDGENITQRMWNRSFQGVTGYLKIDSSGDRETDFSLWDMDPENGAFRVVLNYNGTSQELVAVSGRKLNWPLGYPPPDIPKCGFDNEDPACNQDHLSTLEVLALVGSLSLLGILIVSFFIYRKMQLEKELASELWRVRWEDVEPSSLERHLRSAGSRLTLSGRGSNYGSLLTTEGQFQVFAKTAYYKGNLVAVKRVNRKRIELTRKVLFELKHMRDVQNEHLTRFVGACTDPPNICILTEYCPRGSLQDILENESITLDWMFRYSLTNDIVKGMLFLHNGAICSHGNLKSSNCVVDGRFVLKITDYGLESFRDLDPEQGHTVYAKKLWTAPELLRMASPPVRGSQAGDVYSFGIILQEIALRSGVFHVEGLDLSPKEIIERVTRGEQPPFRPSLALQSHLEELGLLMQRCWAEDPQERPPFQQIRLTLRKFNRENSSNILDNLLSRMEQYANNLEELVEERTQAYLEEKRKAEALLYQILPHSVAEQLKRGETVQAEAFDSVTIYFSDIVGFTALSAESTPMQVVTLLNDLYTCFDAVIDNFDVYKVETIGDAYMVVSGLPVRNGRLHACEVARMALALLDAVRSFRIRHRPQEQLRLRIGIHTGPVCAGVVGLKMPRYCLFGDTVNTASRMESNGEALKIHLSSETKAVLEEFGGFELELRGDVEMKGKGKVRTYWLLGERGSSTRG
T1 chain 2: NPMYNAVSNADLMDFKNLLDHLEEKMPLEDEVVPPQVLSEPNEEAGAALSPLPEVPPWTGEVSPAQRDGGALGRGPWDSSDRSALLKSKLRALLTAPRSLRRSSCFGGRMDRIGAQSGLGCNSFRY

[2] = biological target: T2, human NPR3 + ANP (human, UniProt P17342); assay: ELISA
T2 chain 1: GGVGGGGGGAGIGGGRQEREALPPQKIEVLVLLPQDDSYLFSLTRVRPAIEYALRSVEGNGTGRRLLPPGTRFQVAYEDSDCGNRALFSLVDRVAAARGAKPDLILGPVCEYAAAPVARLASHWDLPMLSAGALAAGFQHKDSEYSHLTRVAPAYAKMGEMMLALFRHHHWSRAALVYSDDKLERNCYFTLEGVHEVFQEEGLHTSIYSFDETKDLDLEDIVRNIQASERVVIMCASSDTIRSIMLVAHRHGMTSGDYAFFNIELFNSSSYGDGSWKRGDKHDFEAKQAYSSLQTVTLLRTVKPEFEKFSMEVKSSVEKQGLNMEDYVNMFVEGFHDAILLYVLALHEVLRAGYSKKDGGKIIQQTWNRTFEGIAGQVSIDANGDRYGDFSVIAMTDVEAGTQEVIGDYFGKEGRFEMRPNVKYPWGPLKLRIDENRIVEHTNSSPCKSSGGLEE
T2 chain 2: T1 chain 2

[3] = biological target: T3, rat NPR1 (rat); assay: ELISA
T3 chain: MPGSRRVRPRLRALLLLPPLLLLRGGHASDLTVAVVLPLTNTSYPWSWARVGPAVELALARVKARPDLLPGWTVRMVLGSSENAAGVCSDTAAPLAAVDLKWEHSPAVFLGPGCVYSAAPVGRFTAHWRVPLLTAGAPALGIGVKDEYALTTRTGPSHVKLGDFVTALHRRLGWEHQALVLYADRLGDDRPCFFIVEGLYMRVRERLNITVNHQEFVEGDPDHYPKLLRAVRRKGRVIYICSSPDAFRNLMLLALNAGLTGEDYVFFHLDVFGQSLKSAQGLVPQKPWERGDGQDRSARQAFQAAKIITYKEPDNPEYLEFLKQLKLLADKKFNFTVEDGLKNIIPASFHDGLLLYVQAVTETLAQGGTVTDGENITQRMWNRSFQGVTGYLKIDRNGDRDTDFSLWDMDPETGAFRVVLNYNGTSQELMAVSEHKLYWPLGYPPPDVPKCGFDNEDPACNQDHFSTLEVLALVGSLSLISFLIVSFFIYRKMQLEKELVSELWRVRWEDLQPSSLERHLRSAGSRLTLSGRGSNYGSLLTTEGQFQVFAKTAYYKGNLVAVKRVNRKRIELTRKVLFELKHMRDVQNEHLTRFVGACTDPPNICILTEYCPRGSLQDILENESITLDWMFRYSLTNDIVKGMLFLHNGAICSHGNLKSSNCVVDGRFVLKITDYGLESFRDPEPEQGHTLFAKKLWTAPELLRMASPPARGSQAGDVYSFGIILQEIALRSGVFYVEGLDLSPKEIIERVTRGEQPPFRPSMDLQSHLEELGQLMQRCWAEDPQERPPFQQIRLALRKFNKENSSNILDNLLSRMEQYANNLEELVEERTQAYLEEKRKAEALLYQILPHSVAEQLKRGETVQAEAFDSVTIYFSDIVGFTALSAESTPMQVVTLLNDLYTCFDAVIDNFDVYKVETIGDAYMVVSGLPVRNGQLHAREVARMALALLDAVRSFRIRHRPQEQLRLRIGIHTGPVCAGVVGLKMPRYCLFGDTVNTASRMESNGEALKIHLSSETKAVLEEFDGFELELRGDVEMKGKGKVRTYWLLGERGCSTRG

[4] = biological target: T4, human NPR3 (human, UniProt P17342); assay: ELISA
T4 chain: T2 chain 1

[5] = biological target: T5, human NPR1 (human); assay: ELISA
T5 chain: T1 chain 1 with R106W

[6] = biological target: T6, human NPR1 W74R (human); assay: ELISA
T6 chain: T1 chain 1

[7] = biological target: T7, rat NPR1-ANP complex (rat); assay: ELISA
T7 chain 1: T3 chain
T7 chain 2: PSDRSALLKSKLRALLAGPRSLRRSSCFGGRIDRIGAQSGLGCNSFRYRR

[8] = biological target: T8, human NPR1-ANP complex (human); assay: ELISA
T8 chain 1: T1 chain 1 with R106W
T8 chain 2: T1 chain 2

[9] = biological target: T5, human NPR1; assay: ELISA
[10] = biological target: T1, human NPR1 W74R + ANP; assay: ELISA
[11] = biological target: T6, human NPR1 W74R; assay: ELISA
[12] = biological target: T5, human NPR1; assay: SPR
[13] = biological target: T8, human NPR1-ANP complex; assay: SPR
[14] = biological target: T5, human NPR1; assay: SPR
[15] = biological target: T8, human NPR1-ANP complex; assay: SPR

binding result [1]: no binding
binding result [2]: no binding
binding result [3]: no binding
binding result [4]: no binding
binding result [5]: no binding
binding result [6]: no binding
binding result [7]: no binding
B1: WW01 IgG (antibody, V domains shown)
VH: QVQLLESGGGLVQPGGSLRLSCAASGFTFNTHYIHWVRQAPGKGLEWVSSISGSGSNTYYADSVKGRFTISRDNSKNTLYLQMNSLRAEDTAVYYCARERGYVYYHMFDPWGQGTLVTVSS
VL: DIVLTQSPATLSLSPGERATLSCRASQSITRNYLAWYQQKPGQAPRLLIYGASSRATGIPARFSGSGSGTDFTLTISSLEPEDFAVYYCQQHSMYPRTFGQGTKVEIK

EC50 [8]: 1.1 nM
EC50 [9]: 2.5 nM
binding result [2]: no binding
EC50 [10]: 0.8 nM
EC50 [11]: 0.9 nM
binding result [3]: no binding
binding result [4]: no binding
binding result [7]: no binding
B2: WW06 IgG (antibody, V domains shown)
VH: QVQLVQSGAEVKKPGESLKISCKGSGYSFTSYWIAWVRQMPGKGLEWMGRIDPDNSYTRYSPSFQGQVTISADKSISTAYLQWSSLKASDTAMYYCARWLSPGYALGEQPAGMDHWGQGTLVTVSS
VL: DIVLTQPPSVSGAPGQRVTISCTGSSSNIGAGYAVHWYQQLPGTAPKLLIYSNNKRPSGVPDRFSGSKSGTSASLAITGLQAEDEADYYCQSYDLQKSSRVFGGGTKLTVL

Kd [12]: 5.3 nM
Kd [13]: 12 nM
Kd [14]: 5.3 nM
Kd [15]: 12 nM
B3: WW06 FabCys (antibody, V domains shown)
VH: B2 VH
VL: B2 VL
